# Laboratory results taken from article doi:10.1101/2022.02.17.480855.
# Target: FtsZ from Synechococcus 7942 (Synechococcus 7942)
# Experiment: MST
substance,measurement,value
Microcystin-LR (peptide),Kd,1120 nM
